This is an account of results in publication PMC12231599, “Elucidation of multiple high-resolution states of human MutSβ by cryo-EM reveals interplay between ATP/ADP binding and heteroduplex DNA recognition”.

In data set [1] the target is T1, MSH2 (MutSβ subunit);MSH3 (MutSβ subunit) (Homo sapiens;Homo sapiens, UniProt P43246;P20585 1-934;1-1137, |). In words: SPR (steady state); no ATP; 5 mM Mg2+; SPR: 25 mM HEPES pH 7.5, 150 mM KCl, 5 mM MgCl2, 1 mM DTT, 0.05% Tween, 0.05% BSA, 25 C; FRET: 50 mM HEPES pH 7.0, 200 mM NaCl, 1 mM MgCl2, 1 mM DTT, 0.05% Tween-20, RT. To be noted: protein: recombinant;recombinant; tags: none;none; copies: 1;1; label: 5' biotin; blunt.

For data set [2], the target named is T1, MSH2 (MutSβ subunit);MSH3 (MutSβ …). In words: SPR (steady state); 5 mM Mg2+; no ATP; SPR: 25 mM HEPES pH 7.5, 150 mM KCl, 5 mM MgCl2, 1 mM DTT, 0.05% Tween, 0.05% BSA, 25 C; FRET: 50 mM HEPES pH 7.0, 200 mM NaCl, 1 mM MgCl2, 1 mM DTT, 0.05% Tween-20, RT. To be noted: protein: recombinant;recombinant; tags: none;none; copies: 1;1; label: 5' biotin; blunt, (CAG)2 6-nt extrahelical loop in strand 1.

The target is the same in data set [3]. In words: SPR (kinetic, preferred by authors); 5 mM Mg2+; no ATP; SPR: 25 mM HEPES pH 7.5, 150 mM KCl, 5 mM MgCl2, 1 mM DTT, 0.05% Tween, 0.05% BSA, 25 C; FRET: 50 mM HEPES pH 7.0, 200 mM NaCl, 1 mM MgCl2, 1 mM DTT, 0.05% Tween-20, RT. Conditions: protein: recombinant;recombinant; tags: none;none; copies: 1;1; label: 5' biotin; blunt, (CAG)2 6-nt extrahelical loop in strand 1.

For data set [4] the target is unchanged. In words: FRET (DNA bending); no ATP; 100 nM protein; SPR: 25 mM HEPES pH 7.5, 150 mM KCl, 5 mM MgCl2, 1 mM DTT, 0.05% Tween, 0.05% BSA, 25 C; FRET: 50 mM HEPES pH 7.0, 200 mM NaCl, 1 mM MgCl2, 1 mM DTT, 0.05% Tween-20, RT. To be noted: protein: recombinant;recombinant, tags: none;none, copies: 1;1, label: Cy5 strand 1, Cy3 strand 2, 5' digoxigenin, blunt.

B1: 61 bp homoduplex, biotinylated (SPR) (dsDNA)
DNA 1: CTGAAGCTTAGCTTAGGATCATCGAGGATCAGCTCGGTGCAATTCAGCGGTACCCAATTC
DNA 2: GAATTGGGTACCGCTGAATTGCACCGAGCTGATCCTCGATGATCCTAAGCTAAGCTTCAG
By Kd is commonly meant the equilibrium constant for the complex coming apart. As to B1, the Kd in data set [1] was found to be 3.32 nM.

B2: 61 bp (CAG)2 loop DNA, biotinylated (SPR) (dsDNA)
DNA 1: CTGAAGCTTAGCTTAGGATCATCGAGGATCCAGCAGAGCTCGGTGCAATTCAGCGGTACCCAATTC
DNA 2: GAATTGGGTACCGCTGAATTGCACCGAGCTGATCCTCGATGATCCTAAGCTAAGCTTCAG
B2: the equilibrium dissociation constant (Kd) stood at 0.265 nM in data set [2] and 0.0672 nM in data set [3].

B3: 70 bp (CAG)1 loop DNA (FRET) (dsDNA)
DNA 1: CACACGTTCCGAGATATCCTAGCAAGTGATCAGCGTCTATGTAGCTCAAGAGTTCGACTCAGCCTACACCGAG
DNA 2: CTCGGTGTAGGCTGAGTCGAACTCTTGAGCTACATAGACGATCACTTGCTAGGATATCTCGGAACGTGTG
modifications: internal dye-dT
For B3, the binding result in data set [4] (3-nt CAG loop in strand 1) is listed as “binds”.

B4: 70 bp (CAG)2 loop DNA (FRET) (dsDNA)
DNA 1: CACACGTTCCGAGATATCCTAGCAAGTGATCAGCAGCGTCTATGTAGCTCAAGAGTTCGACTCAGCCTACACCGAG
DNA 2: CTCGGTGTAGGCTGAGTCGAACTCTTGAGCTACATAGACGATCACTTGCTAGGATATCTCGGAACGTGTG
modifications: internal dye-dT
Take B4: in data set [4] (6-nt (CAG)2 loop in strand 1), the binding result was “binds”.

B5: 70 bp (CAG)4 loop DNA (FRET) (dsDNA)
DNA 1: CACACGTTCCGAGATATCCTAGCAAGTGATCAGCAGCAGCAGCGTCTATGTAGCTCAAGAGTTCGACTCAGCCTACACCGAG
DNA 2: CTCGGTGTAGGCTGAGTCGAACTCTTGAGCTACATAGACGATCACTTGCTAGGATATCTCGGAACGTGTG
modifications: internal dye-dT
As for B5, the binding result in data set [4] (12-nt (CAG)4 loop in strand 1) is listed as “binds”.
